Test: yeast display, Sf9 membrane polyspecificity reagent, FACS + sequencing; frameworks hold sequencing errors
Summary of the method: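 Sorting gates, low and high (top ~1%), were placed on anti-HA fluorescence to track expression and on streptavidin fluorescence to track reagent binding. A clone's polyreactivity label is taken from the gate it came out of. The reagent was 10% biotinylated, detergent-solubilized Sf9 membrane, applied for 1 hour at 4 °C to galactose-induced yeast display cells.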

| Sequence | polyreactivity (PSR sort gate) |
| --- | --- |
| QVQLVESGGGLVQAGGSLRLSCAASGSIFRTYAMGWYRQAPGKERELVAAIRRSGGRTYYADSVKGRFTISRDNAKNTVYLQMNSLKPEDTAVYYCNKRVSKQSKYDYWGQGTQVTVSS | high polyreactivity |
| QVQLVESGGGLVQAGGSLRLSCAASGFTFSSYAMGWYRQAPGKERELVAAITQSGGRTYYADSVKGRFTISRDNAKNTVYLQMNSLKPEDTAVYSCAADVTLWYDYWGQGTQVTVSS | low polyreactivity |
| QVQLLESGGGLVQAGGSLRLTCAASGSTFKRYAMGWYRQAPGKERELVAAITTSGGSTYYADSVKGRFTISRDNAKNTVYLQMNSLEPEDTAVYYCAAVWPGRRTTNYYFPGHGYQYGYWGQGTQVTVSS | high polyreactivity |
| QVQLVESGGGLVQAGGSLRLSCAASGSIFQPYAMGWYRQAPGKEWELVAAISRGGTTYYADSVKGRFTISRDNAKNTVYLQMNSLNPEDTAVYYCAVKGYRYVTRYDYWGQGTQVTVSS | high polyreactivity |
| QVQLVESGGCLVQAGCSLRLSCAASGRIFSTYAMGWYRQAPGTERELVAAINKIGGSTYFADSVKGRFTISRDNAKNTVYLQMNSLKPEDTAVYYCAADAPYYPVRRYYYWGQGTQVTVSS | low polyreactivity |
| QVQLVESGGGLVQAGGSLRLSCAASGRTFERNTMRWYRQAPGKERELVAAISYDGGSTYYADSVKGRFTISRDNAKNTVYFQLNSLKPEDRAVYYCNAGGSEIYRSPFDYWGQGTQVTVSS | low polyreactivity |
| QVQLVESGGGLVQAGGSLRLSCAASGSTFDDYAMGWYRPAPGKERELVAAISSDGSTNYADSVKGRFTISRDNAKNTVYLQMNSLKPEDTAVYYCAAESPWDWGYWFEALYDYWGQGTQVNVSS | high polyreactivity |
| QVQLVESGGGLVQAGGSLRLSCAASGRIFYSYAMGWYRQAPGKERELVAAISWSGGRTYYADSVKGRFTISRDNAKNNVYLQMNSLKPEDTAVYYCARRGYYYDYWGQGTQVTVSS | high polyreactivity |
| QFQLVESGGGLVQAGGSLRLSCAASGFIFGLYAMGWYRQAPGKERELVAAISRSGGSTYYADSVKGRFTISRDNAKNTVYLQMNSLKPEDTAVYYCNARYSWPRANWYDYWGQGTQVTVSS | high polyreactivity |
| QVQLVETGGGLVQAGGSLRLSCAASGYTFDGYAMGWYRQAPGKERELVAAINSGGGTYYADSVKGRFTISRDNAKNTVYLLMNSQKPEDTAVYYCAAERVYSDMDYWGQGTQVTVSS | low polyreactivity |
| QVQLQESGGGLVLAGGSLRLSCSASGNISVYGSMGWYRQAPGKVREFVATIDPGTNTNYADSVKDRFTISRDNAKNTVYLQMNSLKPEDTAVYYCAVEAGSDWPYRYWGQGTQVTVSS | low polyreactivity |
| QVQLVESGGGLVHAGGSLRLSCAASGIIFDDYAMGSYRQPPGKERELVAAISGRGGRTYYADSVKGRFTISRDNAKNTVYLQMNSLKPEDTAVYYCAGGGRVRYDYWGQGTQVTVSS | low polyreactivity |
| QVQLVESGGGLVQAGGSLRLSCAASGSIFVDYAMGWYRQAPGKERELVASISGGGSSTYYADSVMGRFTISRDNAKNTVYLQMNSLKPEDTALYYCARDGVRSSSEYDYWGQGTQVTVSS | low polyreactivity |
| QVQLVESGGGLVQAGGSLRLSCAASGSTFSPYAMGWYRQAPGKERELVANITISGGSTYYADSVKGRFTISRDTAKNTVYLQMNSLKPEDTAVYYCNADSLIRWLFTVVILDYWGQGTLVTVSS | low polyreactivity |
| QVQLVESGGGLVQAGGSLRLSCAASGSIFGGYAMGWYRQAPGKERELVASITASGGSTYYADSVKGRFTISRDNAKNTVYLQMNSLKPEDTAVYYCAAEVFSGYDYDYWGQGTQVTVSS | low polyreactivity |
| QVQLVESGGGLVQAGGSLRLSCAPSGFTFRYYGMGWYRQAPGKERELVAAITRTGGSTYYADSVKGRFTISRDNAKYTVYLQMNSLKPEDTAVYFCGAGGSYAYVYWGQGTQVTVSS | high polyreactivity |
| QVQLVESGAGLVQAGGSLRLICAASGSTFVKNVMGCYRQAPGKERELVAGITRGGSTYYADSVKGRFTISRDHAKNSVYLQMNSLYPDDTAVYYWAKRYAWELDYWGQGSQVTVSS | high polyreactivity |
| RVQLVESGGGLVQAGGSLRLSCAASGITFGRNAMGWYRQAPGKERELVAAISRGGSTNYADSVKGRFTISRDNAKNTVYLQMNSLKPEDTAVYYCNARSFGPTESRYDYWGQGTQVTVSS | high polyreactivity |
| QVQLVESGGGLVQAGGSLRLSCAASGSIFRLNAMGWYRQAPGKERELVAAIDGSDGSTYYADSVKGRFTISRDNAKNTVYLQMNSLKPEDTAVYYCAAERGYPTDYYSGSDDYWGQGTQVTVSS | low polyreactivity |
| QVQLVESGGGLVQAGGSLRLSCAASGRIFAAYAMGWYRQAPGKERELVAGISRGGRTYYADSVKGRFTISRDNAKNTVYLQMNSLKPEDTAVYYCNKAPSWWDVRVPFDYWGQGTQVTVSS | low polyreactivity |
| QVQLVESGGGLVQAGGSLRLSCAASGSIFDRYGMGWYRQAPGKERELVADITSDGSTNYADSVKGRFTISRDNAKNTVYLQMNSLKPEDTAVYYCAVSYTAYSVGYDYWGQGTQVTVSS | low polyreactivity |
| QFQLVESGGGLVQAGGSLRLSCAASGRIFARNTMGWYRQAAGKERELVAAITYSGGNTYYADSVKGRFTISRDNAKNTVYLQMNSLKPEDTAVYDCNKASFGRLRKKIMDYWGQGTQVTVSS | high polyreactivity |

| Sequence | polyreactivity (PSR sort gate) |
| --- | --- |
| QVQLVESGGGLVQAGGSLRLSCAASGSNFGIYAMGWYRQAPGKERELVAAISSRGSTYYADSVKGRFTISRDNAKNTVYLQMNSLKPEDTAVYYCAAGYAWYNYWGQGTQVTVSS | high polyreactivity |
| QVQLVESGGGLVQAGGSLRLSCAASGSTLIANAMGWYRQAPGKERELVAGITYRGGDITTYADSVKGRFTISRDNAKNTVYLQKTSLKPEDTAVYYCAARVVWPTWARGGYWGQGTQVTVSS | low polyreactivity |
| QVQLVESGGGLVQAGGSLRLSCAASGFTFTYNDMGWYRQAPGKEREFVAAISSTGGSTNYADSVKGRFTISRDNAKNTVYLQMNSLKPEDTAGYYCATESYDSYGLYDYWGQGTQVTVSS | low polyreactivity |
| QVQLVESGVGLVESGGSLRLSCASSGSTFVYTAMCWYRQSPGKERELVAAISWSGGSTYYADSVKGRFTISRDNAKKTVYLQMNSQKPEDTAVYYCAADGNPPAAMDYRGQGTQVTVSS | low polyreactivity |
| QIQLVESGGGLVQAGGSLRLSCAASGRTFYSYAMGWYRQAPGKERELVAAINRGASTYYADSVKGRFTISRDNAKNTVYFQMNSLKPEDTAVYYCNAQYYYIPSSTDYDYWGQGTQVTVSS | high polyreactivity |
| QVQLVESGGGLVQAGGSLRLSCDASGFTFYKNAMGWYRQAPGKERELVAAISSGGSTSYADSVKGRFTISRDNAKNTVYLQMNSLKPEDTAVYFCAADRFAFYGRYRGPYYYWGQGTQVTVSS | high polyreactivity |
| QVQLVESGGGLVQAGGSLRLSCDASGRIYGYNAIAWYRQAPGKERELVAAITNGGSTNYADSVKGRFTISRDNAKNTVFLQMNSLKPDETAVYYCAVKWYAPGHDYWGQGTQVTVSS | low polyreactivity |
| QVQHVESGGGLVQAGGSLRLSCAASASTFAWYPMGWYRQAPGKERELVAAITRDGSTYYADSVKGRFTISRDNAKNTVYLQMNSLKPEDTAVYYCAADLSYWRGGHSRNYWGQGTQVTVSS | low polyreactivity |
| QVQLVESGGGLVQAGGSLRLSCAASGSTFQWYAMGWYRQAPGKERELVAGITRTGSTYYADSVKGRFTISRDNAKNTVYLQMNSLKPEDTAVYYCAAKWHTASGKYYYWGQGTQVTVSS | high polyreactivity |
| QVQLVESGGGLVQAGGSLRLSCAASGIIFYGYVMGWYRQAPGKERELVAAISKSGGSTYYADSVKGRFTISRDNAKNTVYLQMNSLKPEETAVYYCAAERKSFYRYNYWGQGTQVTVSS | high polyreactivity |
| QVQLVESGGGLVQAGGSLRLSCAASGRTFFYYKMGLSRQAPGKESELVATISWRGGSTYYADSVKGRFTISRDNAKNTVYLHINSLNPEDTSVFYCAARYRSRFDSWGQGSQVTVSS | high polyreactivity |
| QVQLVESGGGLVQAGGSLRLSCAAYGFTFSRKAMGWYRPAPGKERELVAAISIRGGSTYYADSVKGRFTISRDNAKITVYLQMNSLKPEDTAVYYCAALYRPTDYDYWGQGTQVTVSS | high polyreactivity |
| QVQLVESGGGLVQAGGSLRLSCAASGSTFNKYTMGWYRQAPGKERELVAAISRIGGSTYYADSVKGRFTISRDNAKNTVYLQMNSLKPEDTAVYYCAAPYPIGHDWGQGTQVTVSS | low polyreactivity |
| QVQLVESGGGLVQAGGSLRISCAASGSTFGSYVMGWYRQAPGKERELVAAICGSGGSTYYADSVKGRFTISRDNAKHTVYLQMNSLKPEDTAVYYCAAYVYFPWYGYWGQATQVTVSS | high polyreactivity |
| QVQLVESAVGLVQAGGSLRLSCAASGGIIAYNAMGWYRQAPGKERELVAAISSSGGRTYYADSVKGRFTISRDNAKNTVYLQMNSLKPEDTAVYYCAADITFRYYYWGQGTQVTVSS | high polyreactivity |
| QVQLVESGGGLVQAGGSLRLSCAASGSIFYPNAMGWYRQAPGKEREFVAAISKSGGNTYYADSVKGRFTISRDNAKNTVYLQMNSLKPEDTAVYYCAARTQAFSRKGYGYWGQGTQVTVSS | high polyreactivity |
| QVQLVESGGGLVQAGGSLRLSCAASGSTFVSYTMGWYRQAPGKERELVAAISYNGARTYYADSVKGRFTISRDNAKNTVYLQMISLKPEDTAVYDCARRYYSQYDYWGQGTQVTVSS | high polyreactivity |
| QVQLVESGGGLVQAGGSLRLSCAASGSTFVIYAMGWYRQAPGKERELVAAITISGGRTYYADSVKGRFTISRDNAKNTVYLQMNSLKPEDTAVYYCAATVVSTYPYGYGSTFVRDDYWGQGTQVTVSS | low polyreactivity |
| QVQLVESGGGLVQAGGSLRLSCAASGFIFASNAMGWYRQAPGKERELVAGITKSGGSTYYADSVKGRFTISRDNAKNTVYLQMNSLKPEDTAVYYCAKVSYARAKSSGFYYWGQGTQVTVSS | high polyreactivity |
| QVQLVESGGGLVQAVGSLLLSCAASGITFRYYAMGWYRQAPGKERELVARITTDGSTHYADSVMGRFTISRDNAKNTVYLQMNSLKPEDTAVYYCNVDGYYLFVRGYEYWGLGTQVTVSS | low polyreactivity |
| QVQLVESGGGLVQAGGSLRLSCAASGSTFTNYAMGWYRQAPGKERELVAAIDRRDGTTYYADSVKGRFTISRDNAKNTVYLQMNSLKPEDTAVYYCAADRDYSADVPGYYYWGQGTQVTVSS | low polyreactivity |

— the nanobody polyreactivity screen of Harvey et al. (2022)
